Reference: patent US20190364907
Changes are numbered by the printed parent chain. Names may count otherwise.

B1: recombinant CMP1 LC (light chain of clostridial mosquitocidal protein 1) (protein)
chain: LQIRVFNYNDPIDGENIVELRYHNRSPVKAFQIVDGIWIIPERYNFTNDTKKVPDDRALTILEDEVFAVRENDYLTTDVNEKNSFLNNITKLFKRINSSNIGNQLLNYISTSVPYPVVSTNSIKARDYNTIKFDSIDGRRITKSANVLIYGPSMKNLLDKQTRAINGEEAKNGIGCLSDIIFSPNYLSVQTVSSSRFVEDPASSLTHELIHALHNLYGIQYPGEEKFKFGGFIDKLLGTRECIDYEEVLTYGGKDSEIIRKKIDKSLYPDDFVNKYGEMYKRIKGSNPYYPDEKKLKQSFLNRMNPFDQNGTFDTKEFKNHLMDLWFGLNESEFAKEKKILVRKHYITKQINPKYTELTNDVYTEDKGFVNGQSIDNQNFKIIDDLISKKVKL
B2: catalytically inactive CMP1 LC E209Q mutant (protein)
chain: B1 chain with E208Q

Experiments:
[1] = target: An. gambiae syntaxin H252N mutant
[2] = target: recombinant An. gambiae syntaxin1A fragment
[3] = target: recombinant human syntaxin1A fragment, Q16623
[4] = target: An. gambiae syntaxin T264V Q265S double mutant
[5] = target: An. gambiae syntaxin Q261E T262R double mutant
[6] = target: An. gambiae syntaxin L271V mutant
[7] = target: An. gambiae syntaxin M257V mutant

recombinant human syntaxin1A fragment, Q16623, sequence (Q16623 whole entry, looked up, the tested form may be a part): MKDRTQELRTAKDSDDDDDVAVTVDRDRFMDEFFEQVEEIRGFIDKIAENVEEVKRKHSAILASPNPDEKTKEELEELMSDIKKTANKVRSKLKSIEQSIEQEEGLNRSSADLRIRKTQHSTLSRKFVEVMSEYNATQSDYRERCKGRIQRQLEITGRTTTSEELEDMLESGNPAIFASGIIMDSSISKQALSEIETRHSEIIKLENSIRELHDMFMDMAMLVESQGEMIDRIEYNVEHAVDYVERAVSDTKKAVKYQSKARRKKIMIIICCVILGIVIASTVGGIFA

| Protein | cleavage of syntaxin mutant (Western blot) [1] | cleavage of recombinant SNARE protein (SDS-PAGE / Western blot) [2] | cleavage of recombinant SNARE protein (SDS-PAGE / Western blot) [3] | cleavage of syntaxin mutant (Western blot) [4] | cleavage of syntaxin mutant (Western blot) [5] | cleavage of syntaxin mutant (Western blot) [6] | cleavage of syntaxin mutant (Western blot) [7] |
| --- | --- | --- | --- | --- | --- | --- | --- |
| B1 | Syntaxin mutants were cleaved with less efficiency than non-mutated syntaxin | CMP1 LC cleaves the mosquito syntaxin resulting in a band of lower molecular weight that corresponds to cleavage of C-terminus of syntaxin | CMP1 LC was not able to cleave the recombinant human syntaxin1A | Syntaxin mutants were cleaved with less efficiency than non-mutated syntaxin | Syntaxin mutants were cleaved with less efficiency than non-mutated syntaxin | the L271V mutant completely abolished cleavage | Syntaxin mutants were cleaved with less efficiency than non-mutated syntaxin |
| B2 |  | no cleavage was observed by the catalytically inactive CMP1 LC E209Q mutant |  |  |  |  |  |
